Assays:
Assay in all cases: Flag IP of Flag-SHARPIN from WM115 lysate, on-bead tryptic digestion, LC/MS-MS
HNRNPU = target: T1, HNRNPU (human, UniProt Q00839 2-825, limits assumed)
T1 construct: endogenous protein co-purified from WM115 lysate
Protocol: (§1) To identify SHARPIN-interacting proteins, WM115 cells were transfected with Flag-tagged SHARPIN or control empty plasmid. Cell lysates were prepared using 1% Triton X-100 buffer [50 mM Tris-HCl, pH7.4, 1% (v/v) Triton X-100, 150 mM NaCl, 1 mM EDTA, and protease and phosphatase inhibitor cocktails (Thermo Fisher Scientific)]. Lysates were pre-cleared with protein A/G beads (Santa Cruz Biotechnology) for 1 h at 4° C. followed by immunoprecipitation using FLAG-M2-agarose beads (Sigma-Aldrich) overnight at 4° C. Beads were then washed with lysis buffer and TBS containing lx protease inhibitor cocktail before being subjected to on-bead tryptic digestion followed by mass spectrometry. In Vitro Methylation Assay.

MYH10 = target: T2, MYH10 (human, UniProt P35580 1-1976, limits assumed)
T2 construct: endogenous protein co-purified from WM115 lysate
Protocol: as §1

[1] = target: T3, Gamma-interferon-inducible protein 16 (IFI16) (human, UniProt Q16666 1-785)
T3 construct: Endogenous protein in WM115 / A375
T3 sequence: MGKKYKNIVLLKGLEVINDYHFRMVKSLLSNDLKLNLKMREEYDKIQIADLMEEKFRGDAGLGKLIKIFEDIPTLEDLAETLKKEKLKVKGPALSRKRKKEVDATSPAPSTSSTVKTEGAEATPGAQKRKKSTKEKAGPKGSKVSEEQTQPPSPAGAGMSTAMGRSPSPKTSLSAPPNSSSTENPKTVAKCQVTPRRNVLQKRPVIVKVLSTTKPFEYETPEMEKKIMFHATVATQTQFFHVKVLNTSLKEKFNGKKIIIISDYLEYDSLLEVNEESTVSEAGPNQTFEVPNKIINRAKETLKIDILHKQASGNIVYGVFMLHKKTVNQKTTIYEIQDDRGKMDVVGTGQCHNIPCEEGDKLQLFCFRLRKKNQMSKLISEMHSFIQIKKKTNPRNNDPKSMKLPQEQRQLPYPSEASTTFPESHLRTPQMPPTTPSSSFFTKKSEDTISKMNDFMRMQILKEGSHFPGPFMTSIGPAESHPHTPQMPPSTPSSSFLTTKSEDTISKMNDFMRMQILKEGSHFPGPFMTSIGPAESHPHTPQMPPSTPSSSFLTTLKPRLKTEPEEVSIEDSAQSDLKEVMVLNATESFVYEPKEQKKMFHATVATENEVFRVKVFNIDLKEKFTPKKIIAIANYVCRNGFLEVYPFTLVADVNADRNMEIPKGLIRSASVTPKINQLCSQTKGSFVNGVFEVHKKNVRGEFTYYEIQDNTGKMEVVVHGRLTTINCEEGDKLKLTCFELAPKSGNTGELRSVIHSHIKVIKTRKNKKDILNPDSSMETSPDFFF
Protocol: as §1

PDIA6 = target: T4, PDIA6 (human, UniProt Q15084 20-440)
T4 construct: endogenous protein co-purified from WM115 lysate
T4 sequence (looked up): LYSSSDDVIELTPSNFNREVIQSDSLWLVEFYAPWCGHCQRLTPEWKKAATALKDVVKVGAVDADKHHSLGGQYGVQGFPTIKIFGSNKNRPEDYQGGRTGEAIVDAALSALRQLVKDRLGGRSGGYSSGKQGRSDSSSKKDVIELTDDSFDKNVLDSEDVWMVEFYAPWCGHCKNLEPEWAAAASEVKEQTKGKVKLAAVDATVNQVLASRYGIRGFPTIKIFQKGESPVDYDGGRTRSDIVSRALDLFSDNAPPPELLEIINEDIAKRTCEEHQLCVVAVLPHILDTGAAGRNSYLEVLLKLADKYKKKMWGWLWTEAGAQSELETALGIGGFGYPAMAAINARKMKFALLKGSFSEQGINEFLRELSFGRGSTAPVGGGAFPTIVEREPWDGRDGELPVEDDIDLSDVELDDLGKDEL
Protocol: as §1

DYNC1H1 = target: T5, DYNC1H1 (human, UniProt Q14204 2-4646)
T5 construct: endogenous protein co-purified from WM115 lysate
Protocol: as §1

RNF31 = target: T6, RNF31 (human, UniProt Q96EP0 1-1072)
T6 construct: endogenous protein co-purified from WM115 lysate
T6 sequence (looked up): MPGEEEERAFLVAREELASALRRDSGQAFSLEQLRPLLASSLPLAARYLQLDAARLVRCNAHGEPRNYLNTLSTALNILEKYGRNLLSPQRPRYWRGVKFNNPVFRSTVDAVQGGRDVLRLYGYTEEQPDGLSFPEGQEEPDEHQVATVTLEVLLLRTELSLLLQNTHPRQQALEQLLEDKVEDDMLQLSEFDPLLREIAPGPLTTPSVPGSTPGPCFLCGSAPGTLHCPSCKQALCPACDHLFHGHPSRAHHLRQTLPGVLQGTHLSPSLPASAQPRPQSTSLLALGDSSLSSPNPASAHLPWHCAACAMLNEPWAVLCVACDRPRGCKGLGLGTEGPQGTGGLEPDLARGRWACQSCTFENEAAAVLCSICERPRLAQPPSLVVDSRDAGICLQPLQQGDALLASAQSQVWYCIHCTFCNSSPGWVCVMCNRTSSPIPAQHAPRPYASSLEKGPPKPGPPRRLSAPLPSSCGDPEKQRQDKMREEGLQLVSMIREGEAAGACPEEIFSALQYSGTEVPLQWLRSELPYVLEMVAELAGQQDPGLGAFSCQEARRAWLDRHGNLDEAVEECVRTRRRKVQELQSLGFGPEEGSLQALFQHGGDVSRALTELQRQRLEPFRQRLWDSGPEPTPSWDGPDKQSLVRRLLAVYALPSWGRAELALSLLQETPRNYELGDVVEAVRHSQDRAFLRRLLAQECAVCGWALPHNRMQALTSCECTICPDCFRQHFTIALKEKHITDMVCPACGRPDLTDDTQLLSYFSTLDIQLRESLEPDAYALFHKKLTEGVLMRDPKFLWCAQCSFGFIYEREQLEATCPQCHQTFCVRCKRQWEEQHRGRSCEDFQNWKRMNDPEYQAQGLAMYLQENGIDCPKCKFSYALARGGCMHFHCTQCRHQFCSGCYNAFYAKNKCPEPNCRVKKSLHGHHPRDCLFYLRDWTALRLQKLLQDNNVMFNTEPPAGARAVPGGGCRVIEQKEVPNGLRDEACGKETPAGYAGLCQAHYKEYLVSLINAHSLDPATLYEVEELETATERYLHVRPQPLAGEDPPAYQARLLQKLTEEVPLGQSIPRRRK
Protocol: as §1

T1 sequence (Q00839 2-825 limits assumed): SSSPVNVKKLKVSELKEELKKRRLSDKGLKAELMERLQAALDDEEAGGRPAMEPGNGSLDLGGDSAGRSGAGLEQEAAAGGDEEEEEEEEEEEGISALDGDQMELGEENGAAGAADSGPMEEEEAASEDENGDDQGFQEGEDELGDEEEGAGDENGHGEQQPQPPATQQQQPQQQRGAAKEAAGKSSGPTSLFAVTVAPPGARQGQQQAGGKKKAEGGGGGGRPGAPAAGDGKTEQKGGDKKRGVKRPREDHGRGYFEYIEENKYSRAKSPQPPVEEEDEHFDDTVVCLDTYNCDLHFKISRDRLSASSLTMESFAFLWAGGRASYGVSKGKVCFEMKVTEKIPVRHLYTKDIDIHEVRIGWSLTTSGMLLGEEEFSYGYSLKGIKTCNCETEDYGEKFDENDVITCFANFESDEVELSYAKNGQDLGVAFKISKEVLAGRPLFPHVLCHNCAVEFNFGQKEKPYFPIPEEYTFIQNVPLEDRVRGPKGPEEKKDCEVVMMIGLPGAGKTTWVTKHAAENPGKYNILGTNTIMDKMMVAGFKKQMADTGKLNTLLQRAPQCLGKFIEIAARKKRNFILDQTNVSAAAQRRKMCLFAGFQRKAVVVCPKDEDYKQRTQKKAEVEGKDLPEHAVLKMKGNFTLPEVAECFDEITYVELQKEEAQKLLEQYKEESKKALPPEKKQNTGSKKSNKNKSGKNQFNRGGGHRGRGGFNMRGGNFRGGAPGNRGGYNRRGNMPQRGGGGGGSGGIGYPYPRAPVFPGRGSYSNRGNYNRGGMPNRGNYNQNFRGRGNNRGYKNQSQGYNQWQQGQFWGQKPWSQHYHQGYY
T2 sequence (P35580 whole entry): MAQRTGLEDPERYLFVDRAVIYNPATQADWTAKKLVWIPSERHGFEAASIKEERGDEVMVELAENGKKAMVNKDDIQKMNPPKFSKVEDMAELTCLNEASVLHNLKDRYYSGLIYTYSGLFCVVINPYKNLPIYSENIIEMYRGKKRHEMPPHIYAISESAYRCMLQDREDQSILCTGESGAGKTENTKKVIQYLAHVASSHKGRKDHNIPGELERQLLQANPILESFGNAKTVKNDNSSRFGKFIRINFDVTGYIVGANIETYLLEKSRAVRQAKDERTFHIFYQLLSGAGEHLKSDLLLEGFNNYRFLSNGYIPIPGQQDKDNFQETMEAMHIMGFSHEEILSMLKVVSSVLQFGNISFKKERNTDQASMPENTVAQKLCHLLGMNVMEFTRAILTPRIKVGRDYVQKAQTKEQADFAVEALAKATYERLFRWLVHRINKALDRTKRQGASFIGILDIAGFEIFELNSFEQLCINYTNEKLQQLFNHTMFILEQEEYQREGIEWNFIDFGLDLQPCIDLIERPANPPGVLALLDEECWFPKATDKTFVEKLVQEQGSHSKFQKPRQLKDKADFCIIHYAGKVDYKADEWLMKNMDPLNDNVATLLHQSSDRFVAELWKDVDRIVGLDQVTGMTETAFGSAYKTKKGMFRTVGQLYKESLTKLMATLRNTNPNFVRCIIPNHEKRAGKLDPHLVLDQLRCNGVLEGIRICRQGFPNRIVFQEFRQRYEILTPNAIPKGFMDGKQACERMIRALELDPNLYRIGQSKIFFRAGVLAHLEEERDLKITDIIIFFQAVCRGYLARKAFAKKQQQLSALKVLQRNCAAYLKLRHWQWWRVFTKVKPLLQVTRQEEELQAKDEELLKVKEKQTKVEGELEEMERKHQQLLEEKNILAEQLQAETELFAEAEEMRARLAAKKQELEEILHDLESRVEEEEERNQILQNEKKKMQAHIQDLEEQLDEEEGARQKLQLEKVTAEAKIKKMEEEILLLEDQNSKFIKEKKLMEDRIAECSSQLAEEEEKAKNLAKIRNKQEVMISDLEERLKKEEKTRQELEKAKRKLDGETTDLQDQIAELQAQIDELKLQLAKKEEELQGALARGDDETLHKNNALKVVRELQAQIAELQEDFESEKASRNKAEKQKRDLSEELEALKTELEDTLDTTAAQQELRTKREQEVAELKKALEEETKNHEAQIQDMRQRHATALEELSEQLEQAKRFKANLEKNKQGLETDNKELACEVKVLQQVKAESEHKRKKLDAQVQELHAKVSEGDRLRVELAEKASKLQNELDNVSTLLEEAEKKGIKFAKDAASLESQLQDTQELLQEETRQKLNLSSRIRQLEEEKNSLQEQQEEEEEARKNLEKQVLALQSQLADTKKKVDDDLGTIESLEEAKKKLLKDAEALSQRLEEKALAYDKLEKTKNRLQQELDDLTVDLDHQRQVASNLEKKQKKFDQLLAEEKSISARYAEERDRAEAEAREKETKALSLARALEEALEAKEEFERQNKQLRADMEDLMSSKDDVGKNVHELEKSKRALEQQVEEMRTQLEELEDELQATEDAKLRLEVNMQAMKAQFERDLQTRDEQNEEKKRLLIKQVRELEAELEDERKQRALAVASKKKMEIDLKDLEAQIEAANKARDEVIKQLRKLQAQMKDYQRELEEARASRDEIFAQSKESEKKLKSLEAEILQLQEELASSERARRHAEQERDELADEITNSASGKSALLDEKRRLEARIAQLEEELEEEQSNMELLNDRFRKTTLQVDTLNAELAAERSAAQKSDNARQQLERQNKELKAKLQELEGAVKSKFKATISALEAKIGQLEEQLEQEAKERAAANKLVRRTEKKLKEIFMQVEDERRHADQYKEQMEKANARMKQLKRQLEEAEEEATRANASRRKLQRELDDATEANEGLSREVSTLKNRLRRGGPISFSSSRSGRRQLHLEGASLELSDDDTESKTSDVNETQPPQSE

binding result (HNRNPU): binds
binding result (MYH10): binds
binding result [1]: binds
binding result (PDIA6): binds
binding result (DYNC1H1): binds
binding result (RNF31): binds
B1: Flag-tagged SHARPIN (other, human, UniProt Q9H0F6 1-387, looked up)
chain: MAPPAGGAAAAASDLGSAAVLLAVHAAVRPLGAGPDAEAQLRRLQLSADPERPGRFRLELLGAGPGAVNLEWPLESVSYTIRGPTQHELQPPPGGPGTLSLHFLNPQEAQRWAVLVRGATVEGQNGSKSNSPPALGPEACPVSLPSPPEASTLKGPPPEADLPRSPGNLTEREELAGSLARAIAGGDEKGAAQVAAVLAQHRVALSVQLQEACFPPGPIRLQVTLEDAASAASAASSAHVALQVHPHCTVAALQEQVFSELGFPPAVQRWVIGRCLCVPERSLASYGVRQDGDPAFLYLLSAPREAPATGPSPQHPQKMDGELGRLFPPSLGLPPGPQPAASSLPSPLQPSWSCPSCTFINAPDRPGCEMCSTQRPCTWDPLAAAST
notes: also called Flag-SHARPIN; not shown: FLAG tag
